Laboratory results as given in publication PMC6910952 (Nature Communications, 2019).
Numbering of substitutions follows the chain as printed.

Assays:
Assay in all cases: pull-down; GST-yNpl4 (0.5 μM, wild type or mutant) on Glutathione Sepharose 4B beads, 1 h at room temperature with 0.5 μM yUfd1, 3 μM Cdc48 (0.5 μM hexamer) and 1 μg K48 chains in 100 μL 50 mM Tris-HCl pH 7.5, 100 mM NaCl, 10% glycerol, 0.1% Triton X-100; chains detected by anti-Ub immunoblot, proteins by Ponceau S
Settings in all cases: both partners purified
GST-yNpl4 A494F = target: T1, GST-yNpl4 A494F (Saccharomyces cerevisiae, UniProt P33755 1-580, A494F)
T1 construct: Npl4 of Saccharomyces cerevisiae (yNpl4), full length; source: E. coli Rosetta (DE3) (pGEX-6P1), purified (Glutathione Sepharose FF, Resource Q); not shown: GST, N-terminal, kept
T1 sequence (looked up): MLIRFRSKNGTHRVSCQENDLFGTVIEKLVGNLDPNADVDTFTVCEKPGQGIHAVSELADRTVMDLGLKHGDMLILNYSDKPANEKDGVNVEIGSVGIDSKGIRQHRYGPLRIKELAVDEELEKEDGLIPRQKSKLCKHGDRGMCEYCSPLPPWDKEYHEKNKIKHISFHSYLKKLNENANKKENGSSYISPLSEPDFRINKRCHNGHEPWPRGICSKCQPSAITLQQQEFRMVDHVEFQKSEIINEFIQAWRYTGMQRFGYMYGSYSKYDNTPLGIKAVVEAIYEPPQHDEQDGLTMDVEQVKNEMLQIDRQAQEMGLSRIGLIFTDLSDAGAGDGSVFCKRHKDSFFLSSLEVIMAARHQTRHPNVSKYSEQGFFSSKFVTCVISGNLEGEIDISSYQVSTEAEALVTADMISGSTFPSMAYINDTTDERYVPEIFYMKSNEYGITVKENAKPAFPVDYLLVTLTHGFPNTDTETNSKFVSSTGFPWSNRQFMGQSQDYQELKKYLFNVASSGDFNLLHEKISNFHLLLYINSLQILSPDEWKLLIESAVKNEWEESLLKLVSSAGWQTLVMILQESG

GST-yNpl4 I575A = target: T2, GST-yNpl4 I575A (Saccharomyces cerevisiae, UniProt P33755 1-580, I575A)
T2 construct: Npl4 of Saccharomyces cerevisiae (yNpl4), full length; source: E. coli Rosetta (DE3) (pGEX-6P1), purified (Glutathione Sepharose FF, Resource Q); not shown: GST, N-terminal, kept
T2 sequence (looked up): T1 sequence (looked up) with F494A, I575A

GST-yNpl4 S498R = target: T3, GST-yNpl4 S498R (Saccharomyces cerevisiae, UniProt P33755 1-580, S498R)
T3 construct: Npl4 of Saccharomyces cerevisiae (yNpl4), full length; source: E. coli Rosetta (DE3) (pGEX-6P1), purified (Glutathione Sepharose FF, Resource Q); not shown: GST, N-terminal, kept
T3 sequence (looked up): T1 sequence (looked up) with F494A, S498R

Measured: binding result

B1: yUfd1 (full length, untagged) (natural protein, Saccharomyces cerevisiae, UniProt P53044 1-361, looked up)
chain: MFSGFSSFGGGNGFVNMPQTFEEFFRCYPIAMMNDRIRKDDANFGGKIFLPPSALSKLSMLNIRYPMLFKLTANETGRVTHGGVLEFIAEEGRVYLPQWMMETLGIQPGSLLQISSTDVPLGQFVKLEPQSVDFLDISDPKAVLENVLRNFSTLTVDDVIEISYNGKTFKIKILEVKPESSSKSICVIETDLVTDFAPPVGYVEPDYKALKAQQDKEKKNSFGKGQVLDPSVLGQGSMSTRIDYAGIANSSRNKLSKFVGQGQNISGKAPKAEPKQDIKDMKITFDGEPAKLDLPEGQLFFGFPMVLPKEDEESAAGSKSSEQNFQGQGISLRKSNKRKTKSDHDSSKSKAPKSPEVIEID
notes: Ufd1 of Saccharomyces cerevisiae (yUfd1), full length; codon-optimized synthetic cDNA; removal of GST by HRV3C is surmised; also called untagged Ufd1; source: E. coli Rosetta (DE3) (pGEX-6P1), purified
binds: all assays above
